# Experimental data reported in the DeepSol protein solubility set.
# Test: soluble on expression in E. coli; label from the status in PepcDB or PDB records
row,Sequence,soluble on expression in E. coli
1,MPMTDLPSAVTNERTEQTNTTNEQQESKGFDYLIVGAGFAGSVLAERLASSGQRVLIVDRRPHIGGNAYDCYDDAGVLIHPYGPHIFHTNSKDVFEYLSRFTEWRPYQHRVLASVDGQLLPIPINLDTVNRLYGLNLTSFQVEEFFASVAEKVEQVRTSEDVVVSKVGRDLYNKFFRGYTRKQWGLDPSELDASVTARVPTRTNRDNRYFADTYQAMPLHGYTRMFQNMLSSPNIKVMLNTDYREIADFIPFQHMIYTGPVDAFFDFCYGKLPYRSLEFRHETHDTEQLLPTGTVNYPNDYAYTRVSEFKHITGQRHHQTSVVYEYPRAEGDPYYPVPRPENAELYKKYEALADAAQDVTFVGRLATYRYYNMDQVVAQALATFRRLQGQPEQGNAE,soluble
2,MGSDKIHHHHHHMSDDTIDRFFGYLNWLFNPFHGLKTTEVYDLIGTSSLTENALYLNLGYWRKADTIDEASEALALLVAKRGGMGPGDIVLDCGYGFGDQDILWARQLKPEKIIGLNITSSQVERARKRVADAGLEQSIDLREGSATAMPIENESIDLVVSVESAFHYRTREAFFREAFRVLRPGGRLVTADIVPTENSGNPFRRMEQWFSWNLVAGKFNIPQENYYLIPSYQNKLTKAGFVQIDIKSIRDDVYEPLHAYLAKNRTFFAKMHPLARIMAQLTLNRSAESVYAGLDYILSYAEKP,not soluble
3,AVKGLGKPDQVYDGSKIRVGIIHARWNRVIIDALVKGAIERMASLGVEENNIIIETVPGSYELPWGTKRFVDRQAKLGKPLDVVIPIGVLIKGSTMHFEYISDSTTHALMNLQEKVDMPVIFGLLTCMTEEQALARAGIDEAHSMHNHGEDWGAAAVEMAVKFGKNAF,soluble
4,MSYEDWAGGIRCSECGREYTGIECPICRQADPTEREVVTEHGNGRGDQQPPENGTVSADSGVYDIDKIEHERHTDAEKVNPEVVDPSDYVTRAVSGVVFNKRHAWKAENRADEDNPPSLFVVTTADSEFNWIEIPLWDDAEGAMEDISIGDPIQAEGKLSKDNGVHNIHVHSQDSIDILTEPPEVKFDSMAIDQITSTTPKVDLEGTVERVGEIKDIQLDDEKVKLREIHVSDLNNDQIQVALWRTNAYEKVAPGDEIIIAGGLAKPHNEKVVVRVGWSGHIGYRSSLEHHHHHH,not soluble
5,MFQIYEIFSSVFNFDPKMPENVGVKEDDDKVFAKEIAQLEEEFEANTLKAESLEKEIAYSKVQIETENVKFAAIEQEKAIEIIKLEKQIKIMEAKLDFMKQDPIEIEEIEKLKHRVEEETQRNTEYAESLKYIKEMIRIKKAEKNEKKQKNAIDN,not soluble
6,MGSDKIHHHHHHMFEMGIQELVKTIDTNINHMISLSVLNLAQLGIKYGIFKAVASRPSYEELLSQIPVPNKPLLKKLIEHLKALGIIEETPSNLILNGFSYVLKFPKEDYMLLLSDWIPIWEEIYKMVDFALISYSHPYVLMDFDKDADFWDIRLSSSFNKTYRDAIINLGEIREDSYILDLGCGSVSPAYFGKFISEDGKYVGVDYSPGLLEIARERVERNGLPAELKEMDVSLIRTRSKYDVAIMSFLLEYVRDREEVLGKVLEALDSGGKLIIVEAFRDEFENIQAMEFFESLNRSFVGYPAKAEIKKAILREGFDVSFEDYGKSILVVRKL,not soluble
7,MGSDKIHHHHHHMDDFSEILARKRQGSLKVYLGYAAGVGKTYAMLQEAHRLAREGLDVVIGYVEPHDRADTLALVEGLEQVAPRKVAIAGSDFTEMDVPGIIARRPQVVLVDELAHTNAAGSENGKRYQDVLKVLEAGINVITTLNVQHLESVAERVESVAGVRVQERLPDAILRRADQVVNVDLTKEDLRERLRQGRIYSPEQAERALGGFFSYRNLSFLRELCLREASGDQVRKIEEQEHFPRHSAGDVIEGVMVALSSSPTDAETLIRRGVRIAHQMGSPCYVVYVQRPSENPTRIDSGLQRVLQGNLRLATQLGAEVVQLAGGDIAETLANFASERNVRHAVFGKSRLSPLLERVRGSFILEFLHDAVGVDVHIVNTTPRQPGQERA,not soluble
8,MMDSCIRIAGIIGESIVDGPGIRLVVFAQGCPHHCPGCHNPETHAYEGGKSVAIAEILQRLAMNPLLDGITLSGGEPFAQAAGFALLAQSARQRGFHVMTYSGYTYEELTASSEQNPAWALLLEQTDLLVDGPFQLAERNLLLPFRGSENQRVIDVQESLRQGKVVLASVLEHHHHHH,not soluble
9,MSLTGTSAIENVDSGNEESMIYQQVGDQTKVLTENDKYLVKCINSFNAEQLPIPSHVPFYSTIDGVNKQCSYNDNENLYVWNFINSKWDDSNYCKIPLNTDSSSSVNALPKSVFILPTNYDTDAEMLGLENSNSSNGIVGGVILVENTADATYLVYYEDMRSINHLSTSISKNMAHLLDLKLHSEEKVTLMLNSEPAGLVLATTEGRLMFITIRETNGKPCLTLKQQLIRPKGSGPLAFLSLFSSSNEIISLRNGPIIGKGERIVYVLTRNGRFQVWKLSVASKCVKMMDTNFYDSILDDLVELYPFAQGSLKILDTHPITNQPFSPQVVLTQISSSDETNFILSTIILDEQTNSFTIFSTYRLNTYIMKGNSALAKPKLCVPSSLQSATSKYFDLFIVFDKAVVITQTSSKLDSTYTLKRKWEDIISFNKEIQILAESNDASTVYLLTKGMGIISIIPKKERGETAYEESFVKSHLDQAIYFSSSSSNPVEFNLPGGLHLEQDEVENDLKTASEEILLSSSKYIPPLTDNIEKHLSLRLVYFRNLISFVKDNFAFSISPSKKLDIIENFELLNCFHKFNNFISSSNFELKSFWDRTLEANGNINEIELAVEKIHRFPDLFSTYLNTIIKELPSKSYTFKLTLADLIIETIYDAILEEGEKKLRYEFLSLDPLELNTHLPWFISIDILDSINQLFFDLKFSLEGQEKNANTQLLVIVKTLYYLFNQVRLFFLKENNMNDVSAQDFMKKCDQLYENNHLAWNQTLCELGLNEDSLEISEFYHDFVSLVETLDTLEAVESKALYEEYFARFGEQFAHTLFEYYVKKSKLQDLFYRFPEQQEFLVSFFKKYPQYGRVSWIFSIINYDYASAAATLYDITSGDRASAMTLESAQLYLNIAKLSTLAAHENHANVNLLGALKRIQANLDVVDGGKDLVEKLKRVDGAPSHLQANYKGTEFEKLFDLLVKKVTNGTMLQFVEVVILYSLIDDKECLYHALKLLAIDGDILELELKKFLISLIWRRSILFDIQNAYDTTSEDSTLHFVLKQYLEDELFRANCPLPTVGVLTEKTMFTESLLSSLFSNYELDTKKLQDILEKEYNTVESTAVDIEKRIIETISSLDKANDNSYTVNYHDLTIEYQNEGHHHHHH,soluble
10,MSLGMDEKSVAIVFPHHLLEDHPAAGKTSGFILVEDQLFFGDPVFGLRFHKNKLVLHRASMRYYHDHLKSRGLKAEYIQYSPDPHMGYLRDHLEGYDRVYTLELLDHELEARMKKLSMELGLEITEIEAPFIFRRNLMDGYFRDGRFLLRSFYIRERKRLSILMENSRPAGGKWTFDTENRKRMPPDLQVPAPVKLPENEYVQEAKEYVSEKFPDNPGSMDRFNYPEGHHHHHH,soluble
11,MSLSEADTSNAKLADFFAKKGNEPLSEIEMEGVLALMQKSRGVADESSFLGNSSRLLGDISNANASQVLRTGNISTSSALNVPNFKPSTDESRNINAKEVENSTIVSTPLKRKNFDYSSIRSPYRTVIYRFDDSNKKKISSVFDKPESSSQEVDETPKPSNSKPLSNTASALVSLLSDKDAAKESIKPMANPYTSHLTALRKSREDLPSINDKITVPKRRQRSETEDKEEAKITSSNGEAQEDTNIPEGIASRKNEEAQDSFTKYKPMRSSSLRDSVSLAHTESNNEKQMNSPKFVPAPLDKNETKETAKSDLTLTSSDKQSESKPSFSFPVNSTTKSTFMGTKKESTSPAVNSQAVKNVSNNETKEIKPQVHECIYDFGNPTSSGFKKTDIDDTLVSKYRGQFVFEGHHHHHH,soluble
12,MGSDKIHHHHHHMKEKVFRDPVHNYIPVEDELIYDLINSKEFQRLRRIKQLGSSSFTFHGAEHSRFSHCLGVYYLARRVTNIFDKKYSDIWNSNESLLTMTAALLHDIGHGAYSHTFERLFDTNHETITQQIILSPETEINTILRRVSPDFPDKVASVINHTYSNKQVEQLISSQIDVDRMDYLLRDSYFTGASYGEFDLTRVLRVIRPIENGIAFSRDGMHAVEDYIISRYQMYMQVYFHPASRAMEVLLQNLLKRAKYLYPKEKEFFTVTSPHLIPFFENRVTLEDYLSLDDGVMNTYFQTWMQSADKILSDLASRFINRKVFKSITFDEKDLSNLEKLRKIVKDLGFDPTYYTALHLNFDLPYDVYKPDVQNPRTQIEMLQEDGSIAELSTLSPLVHTLSGTTHGDRRFYFPKEMLIKDGLFVEAKEKFSHYIKNKHFYNLRE,not soluble
13,MSLLRIIDTETCGLQGGIVEIASVDVIDGKIVNPMSHLVRPDRPISPQAMAIHRITEAMVADKPWIEDVIPHYYGSEWYVAHNASFDRRVLPEMPGEWICTMKLARRLWPGIKYSNMALYKTRKLNVQTPPGLHHHRALYDCYITAALLIDIMNTSGWTAEQMADITGRPSLMTTFTFGKYRGKAVSDVAERDPGYLRWLFNNLDSMSPELRLTLKHYLENTEGHHHHHH,soluble
14,MKNLILVLGCFFFLISCQQTEKEKLEELVKNWNGKEVLFPTNPSFTLYGKTPVDFKIPVSDYKIVTYVDSLGCSSCKLQLPKWKEFMKYADSIVGYQIPVLFFLHPANVREMRSVLKQNRFDYPVCMDTEDTFNKVNKFPSQLNFQTFLLDKNNHVIAIGNPVHNYDVRELYIHLISGGIDGDSLSNMRTVIKIEEDMVDLGSFDWRREQHITFEIHNIGNNNLVVYDNKTSCGCTSVEYSKEPVQPGKSLAVKVTYKADHPEHFNKTIILYCNASASPLELKITGNAK,not soluble
15,SNAMGEAATKSDRQQNQTRLWLNILRLHGLVFGDLNRQLLDETGLSLAKFDAMAQLARNPDGLSMGKLSGALKVTNGNVSGLVNRLIKDGMVVKAMSADDRRSFSAKLTDAGLTTFKQASEAHNRILAELLRAVSDQDMVEASAALRGILESMQTGASLD,soluble
16,GMKEIRIILMGTGNVGLNVLRIIDASNRRRSAFSIKVVGVSDSRSYASGRNLDISSIISNKEKTGRISDRAFSGPEDLMGEAADLLVDCTPASRDGVREYSLYRMAFESGMNVVTANKSGLANKWHDIMDSANQNSKYIRYEATVAGGVPLFSVLDYSILPSKVKRFRGIVSSTINYVIRNMANGRSLRDVVDDAIKKGIAESNPQDDLNGLDAARKSVILVNHIFGTEYTLNDVEYSGVDERSYNANDRLVTEVYVDDRRPVAVSRIISLNKDDFLMSIGMDGLGYQIETDSNGTVNVSDIYDGPYETAGAVVNDILLLSKVQK,soluble
17,MSSGNILWGSQNPIVFKNSFGVSNADTGSQDDLSQQNPFAEGYGVLLILLMVIQAIANNKFIEVQKNAERARNTQEKSNEMDEVIAKAAKGDAKTKEEVPEDVIKYMRDNGILIDGMTIDDYMAKYGDHGKLDKGGLQAIKAALDNDANRNTDLMSQGQITIQKMSQELNAVLTQLTGLISKWGEISSMIAQKTYS,not soluble
18,EVQLLEESGPGLVQPSQSLSITCTVSGFSLTSYGVHWVRQSPGKGLEWLGVIWSGGSTDYNAAFISRLSISKDNSKSQVFFKMNSLQADDTAIYYCARNRGYSYAMDSWGQGTSVTVSSAKTTPPSVYPLAPGSAAQTNSMVTLGCLVKGYFPEPVTVTWNSGSLSSGVHTFPAVLQSDLYTLSSSVTVPSSTWPSETVTCNVAHPASSTKVDKKIVPRDCTS,soluble
